Data on 7 molecules can be found in patent publication US20180155413A1 (AstraZeneca / MedImmune, published 2018).

Assay in all cases: cell-based or functional assay
The target of assay [1] is HA of A/Shan dong/9/93 (H3N2) (influenza A virus).
Assay [2] addresses HA of A/Victoria/3/75 (H3N2) (influenza A virus).
The target of assay [3] is HA of B/Malaysia/2506/2004 (victoria) (influenza B virus).
The target in assay [4] is HA of B/Sichuan/379/99 (yamagata) (influenza B virus).
The target of assay [5] is HA of A/Solomon Island/3/2006 (H1N1) (influenza A virus).
In assay [6] the target is HA of A/California/07/2009 (H1N1) (influenza A virus).
Assay [7] deals with HA of ca A/Panama/2007/99 (H3N2) (influenza A virus).
The target of assay [8] is HA of A/Wilson Smith N/33 (H1N1) (influenza A virus, UniProt P03454 18-565).
HA of A/Wilson Smith N/33 (H1N1), sequence (P03454 18-565 limits assumed): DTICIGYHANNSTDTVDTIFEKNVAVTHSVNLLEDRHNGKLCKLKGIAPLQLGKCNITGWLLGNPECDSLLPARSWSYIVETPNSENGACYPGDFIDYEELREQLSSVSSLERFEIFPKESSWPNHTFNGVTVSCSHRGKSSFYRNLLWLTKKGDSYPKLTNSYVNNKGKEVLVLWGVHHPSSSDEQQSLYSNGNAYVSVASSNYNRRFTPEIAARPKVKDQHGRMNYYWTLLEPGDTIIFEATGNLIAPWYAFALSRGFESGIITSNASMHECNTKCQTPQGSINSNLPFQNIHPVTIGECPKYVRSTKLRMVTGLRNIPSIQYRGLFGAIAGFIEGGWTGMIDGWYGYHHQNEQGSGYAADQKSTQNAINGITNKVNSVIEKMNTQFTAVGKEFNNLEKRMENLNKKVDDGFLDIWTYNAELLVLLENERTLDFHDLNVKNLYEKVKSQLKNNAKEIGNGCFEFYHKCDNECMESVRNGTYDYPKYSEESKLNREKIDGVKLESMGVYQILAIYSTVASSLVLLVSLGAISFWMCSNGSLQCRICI
Assay [9] addresses HA of A/Hong Kong/8/68 (H3N2) (influenza A virus).
The target in assay [10] is HA of B/Florida/4/2006 (yamagata) (influenza B virus).
The target of assay [11] is HA of ca B/Beijing/243/97 (victoria) (influenza B virus).
Assay [12] deals with HA of A/Beijing/262/95 (H1N1) (influenza A virus).
For assay [13], the target named is HA of B/Yamanashi/166/98 (yamagata) (influenza B virus).
For assay [14], the target named is HA of B/Hong Kong/330/2001 (victoria) (influenza B virus).
Assay [15] addresses HA of B/Ohio/1/2005 (victoria) (influenza B virus).

B1: FY1/39 BiS4 100/44 (bispecific antibody)
light: DIQMTQSPSSLSASVGDRVTITCRTSQSLSSYLHWYQQKPGKAPKLLIYAASSLQSGVPSRFSGSGSGTDFTLTISSLQPEDFATYYCQQSRTFGQGTKVEIKRTVAAPSVFIFPPSDEQLKSGTASVVCLLNNFYPREAKVQWKVDNALQSGNSQESVTEQDSKDSTYSLSSTLTLSKADYEKHKVYACEVTHQGLSSPVTKSFNRGEC
heavy: not shown
On to B1, for which the “Neutralization (IC50)” value came out at 12.8 nM in assay [1]; 26.4 nM in assay [2]; 27.6 nM in assay [3]; 8.2 nM in assay [4]; 3.9 nM in assay [5]; 8.2 nM in assay [6]. Also, the “Neutralization (IC50)” value in assay [7] came out at 152 nM; in assay [8], 10.6 nM; in assay [9], 10.6 nM; in [10] it was 3.6 nM; in assay [11] it was 5.8 nM; in [12], 20.2 nM. Also, the figures for the “Neutralization (IC50)” value in assay [13], in [14] and in assay [15] were 0.9 nM, 69.3 nM and 5.6 nM, respectively.

B2: FY1/94 BiS2 100/44 (bispecific antibody)
light: DIQMTQSPSSLSASVGDRVTITCRTSQSLSSYLHWYQQKPGKAPKLLIYAASSLQSGVPSRFSGSGSGTDFTLTISSLQPEDFATYYCQQSRTFGQGTKVEIKRTVAAPSVFIFPPSDEQLKSGTASVVCLLNNFYPREAKVQWKVDNALQSGNSQESVTEQDSKDSTYSLSSTLTLSKADYEKHKVYACEVTHQGLSSPVTKSFNRGEC
heavy: not shown
For B2, the “Neutralization (IC50)” value in assay [1] is 208 nM; in assay [2] it was 15.8 nM; in [3], 0.8 nM; in assay [4], 1.7 nM; in assay [5], 4.1 nM; in [6], 23.1 nM. In addition, the “Neutralization (IC50)” value in [7] stood at 484 nM; in assay [8], 19.9 nM; in assay [9], 17.2 nM; in assay [10], 0.6 nM; in assay [11] it was 1.1 nM; in assay [12], 42 nM. Besides, the “Neutralization (IC50)” value is 0.5 nM in assay [13], 2.1 nM in assay [14] and 1.3 nM in [15].

B3: GL20/39FTL BiS4 43/105 (bispecific antibody)
light: DIQMTQSPSSLSASVGDRVTITCRTSQSLSSYTHWYQQKPGKAPKLLIYAASSRGSGVPSRFSGSGSGTDFTLTISSLQPEDFATYYCQQSRTFGQGTKVEIKRTVAAPSVFIFPPSDEQLKSGTASVVCLLNNFYPREAKVQWKVDNALQSGNSQESVTEQDSKDSTYSLSSTLTLSKADYEKHKVYACEVTHQGLSSPVTKSFNRGEC
heavy: not shown
Take B3: the “Neutralization (IC50)” value in [1] came out at 22.2 nM; in assay [2], 14.9 nM; in [3], 16.2 nM; in assay [4] it was 8.7 nM; in assay [5], 3.8 nM; in assay [6], 20.8 nM. For the same molecule, the “Neutralization (IC50)” value in assay [7] worked out at 35.5 nM; in assay [8], 9.6 nM; in [9], 6.3 nM; in assay [10], 4.2 nM; in assay [11], 23.5 nM; in assay [12], 11.8 nM. Further, the “Neutralization (IC50)” value is 1.1 nM in assay [13], 164 nM in assay [14] and 17.5 nM in assay [15].

B4: FY1/39 BiS4 43/105 (bispecific antibody)
light: DIQMTQSPSSLSASVGDRVTITCRTSQSLSSYLHWYQQKPGKAPKLLIYAASSLQSGVPSRFSGSGSGTDFTLTISSLQPEDFATYYCQQSRTFGQGTKVEIKRTVAAPSVFIFPPSDEQLKSGTASVVCLLNNFYPREAKVQWKVDNALQSGNSQESVTEQDSKDSTYSLSSTLTLSKADYEKHKVYACEVTHQGLSSPVTKSFNRGEC
heavy: not shown
As to B4, the “Neutralization (IC50)” value was determined as 20.4 nM in [1]; 6.5 nM in [2]; 12.6 nM in assay [3]; 3.5 nM in assay [4]; 2.6 nM in assay [5]; 7.1 nM in [6]. Also, the “Neutralization (IC50)” value amounted to 52.7 nM in [7]; 4.3 nM in assay [8]; 4 nM in assay [9]; 1.6 nM in [10]; 2.6 nM in assay [11]; 10.9 nM in [12]. The “Neutralization (IC50)” value was found to be 0.6 nM in assay [13], 19.1 nM in assay [14] and 5.4 nM in assay [15].

B5: GL20/39FTL BiS4 100/44 (bispecific antibody)
light: DIQMTQSPSSLSASVGDRVTITCRTSQSLSSYTHWYQQKPGKAPKLLIYAASSRGSGVPSRFSGSGSGTDFTLTISSLQPEDFATYYCQQSRTFGQGTKVEIK
heavy (part 1 of 2): QVQLQQSGPGLVKPSQTLSLTCAISGDSVSSYNAVWNWIRQSPSRGLEWLGRTYYRSGWYNDYAESVKSRITINPDTSKNQFSLQLNSVTPEDTAVYYCARSGHITVFGVNVDAFDMWGQGTMVTVSS
heavy (part 2 of 2): DIQMTQSPSSVSASVGDRVTITCRASQDISTWLAWYQQKPGKAPKLLIYAASSLQSGVPSRFSGSGSGTDFTLTISSLQPEDFATYYCQQANSFPPTFGCGTKLEIKGGGGSGGGGSGGGGSGGGGSEVQLVESGGGLVKPGGSLRLSCAASGFTFLNAWMSWVRQAPGKCLEWVGRIKSNTDGGTTDYAAPVKGRFTISRDDSKNTLYLQMSSLKTEDTAVYYCTTDGPYSDDFRSGYAARYRYFGMDVWGQGTTVTVSS
For the molecule B5, the “Neutralization (IC50)” value in [1] stood at 21.9 nM; in [2], 13.3 nM; in assay [3], 42.8 nM; in [4], 9.8 nM; in [5] it was 4.4 nM; in assay [6] it was 25.4 nM. Besides, the “Neutralization (IC50)” value in assay [7] came out at 34.1 nM; in assay [8], 13.7 nM; in [9], 10.8 nM; in [10], 7.3 nM; in assay [11], 96.2 nM; in assay [12] it was 16.4 nM. The results for the “Neutralization (IC50)” value in assay [13], in [14] and in assay [15] were 1.4 nM, 106 nM and 20.9 nM, respectively.

B6: FY1 IgG (antibody, V domains shown)
VH: QVQLQESGPGLVKPSQTLSLTCAISGDSVSSNNAVWNWIRQSPSRGLEWLGRTYYRSKWYNDYAESVKSRITVNPDTSKNQFSLHLKSVTPEDTAVFYCVRSGHITVFGVNVDAFDMWGQGTMVTVSS
VL: DIQMTQSPSSLSASVGDRVTITCRTSQSLSSYLHWYQQKPGKAPKLLIYAASSLQSGVPSRFSGSGSGTDFTLTISSLQPEDFATYYCQQSRTFGQGTKVEIK
Regarding B6, the “Neutralization (IC50)” value in [1] is 34.6 nM; in [2], 12 nM; in assay [3], greater than 1000 nM; in assay [4], greater than 1000 nM; in [5], 3.1 nM; in [6], 10.4 nM. The “Neutralization (IC50)” value in [7] is 104 nM; in assay [8], 8.8 nM; in assay [9], 10.6 nM; in [10] it was greater than 1000 nM; in [11] it was greater than 1000 nM; in assay [12], 21 nM. The “Neutralization (IC50)” value in assay [13], in assay [14] and in [15] was greater than 1000 nM in each case.

B7: FBD94 IgG (antibody, V domains shown)
VH: EVQLVESGGGLVQPGRSLRLSCAVSGFIFEDYAINWVRQAPGKGLEWVSIISWDSGRIGYADSVRGRFTISRDNAKNSSFLQMNSLRPEDTAVYYCVKDMLAYYYDGSGIRYNLYGMDVWGQGTTVTVSS
VL: EIVLTQSPATLSLSPGERATLSCRASRSITTFLAWYQQKPGQAPRLLIYDASNRATGVPARFSGSGSGTDFTLTINSLEPDDFAIYYCQQRDHWPPIFGQGTRLEIK
Consider B7, for which the “Neutralization (IC50)” value in [1] is greater than 1000 nM; in assay [2], greater than 1000 nM; in assay [3], 0.1 nM; in assay [4], 0.2 nM; in [5] it was greater than 1000 nM; in assay [6] it was greater than 1000 nM. The “Neutralization (IC50)” value in assay [7] was greater than 1000 nM; in assay [8], greater than 1000 nM; in assay [9], greater than 1000 nM; in assay [10] it was 0.1 nM; in [11], 0.1 nM; in [12], greater than 1000 nM. The “Neutralization (IC50)” value in [13] and in assay [14] was 0.1 nM in each case.
